The Ki is a dissociation constant, usually derived from enzyme kinetics or from competition with a known ligand.

What all share (experiment): enzyme inhibition kinetics
Test [1] concerns the target human LSD1-CoREST complex (LSD1 residues 171-836 with CoREST residues 308-440) (human) (UniProt O60341).
Test [2] has the same target. This is another data set of the same source.
For test [3], the target named is recombinant mouse LSD2 (mouse) (UniProt Q8CIG3).
Test [4] concerns the target human LSD1-CoREST complex (LSD1 residues 171-836 with CoREST residues 308-440) (human) (UniProt O60341). The source holds these as a separate data set.

Where two headings read alike, the source gives them in different places.

As to “20-residue peptide corresponding to the N-terminal residues of human SNAIL1”, the Ki was determined as 220 µM in test [1], 210 µM in test [2], 2.22 µM in test [3] and 0.2 µM in test [4].

(Values after PMC3059804.)
